{"source": "a protein production outcome set (Wang et al. 2014)", "assay": "label from the status in PepcDB records"}
{"sequence": "MEWGISLQTKWSLSEYENPKRYDIENKSLSDFPFLLSWAQKLHIQNEWILDIACGTGRVTIPFIENGYQMIGVDIHEGMLAEAKKKTTDCKKVKWLQQDCLQLSMNEAIPFAFMVGHGFQHFLTNTDQNKLLTSIHHVLAENGIFIFDTRFPSKEELIQPSTEEYWTTISDEKGRECDLYTEMTYDLIQQIQHYITIRKFYDDDALVEELKTTIDLRYTYPQELERLLVANGFELLHIYNDWEGNELGEDCYSMVVVCRKK", "values": [{"measurement": "protein production", "value": "failed"}]}
{"sequence": "MKVIETNFTDAKLLEPRLFGDDRGFFTESYNKKVLETLGVTHSFVQDNVSYSAEAGTIRGLHFQKNPKAQTKLIQVMQGAIYDVIVDLRKDSPTFKQWRGYILSADNHRQLLVPKGFAHGFCTLVPHTIVMYKVDEYYSADHDSGVLWNDKELAIPWPVTSPILSDKDRILPLLQECEDSF", "values": [{"measurement": "protein production", "value": "not failed"}]}
{"sequence": "MASLLQGFEEVQLVKPVGKTVLTVTDSAIRFNKATAEALGFPAYVKVLINDKTRQIAVTPTTAKAGNAIKFSKPEGKQAASVSVKEATFIEAVKAYLTLPEAPEGEIAYQSVNGTAYPESKTVIFDVANATAGTMKLEHHHHHH", "values": [{"measurement": "protein production", "value": "not failed"}]}
{"sequence": "MTIKTLQYDDFMLYRERIRDLLVQIYDINFDVSHDYSINESNKKINLLDEYIKTNQAVLIGAVDGEKLVGFIWIYKHEYFGETRMHINQIIVDKEYKRKGIGKRLLEEAEKKAKELGIKVIDLFVSEKNAEAVNFYEKTGFVTERRYLKKILLEHHHHHH", "values": [{"measurement": "protein production", "value": "not failed"}]}
{"sequence": "MSNIFLSLEPKILWSHFYRLTQIPRPSGHEEAVRTYVADVAKRCGLEWLVDEAGNIIVRKPASAGMERRRGVILQAHLDMVPQKNAGTAHDFTKDPIDAVIDGEWVHARGTTLGADNGIGVAAALAVLESDDLRHGPLEALFTVNEEAGMTGALGLKPGVLRGDILLNLDSEDEGELFIGCAGGLDGTMRFDYSCEPLPPGYSGIEIRVSGLRGGHSGMDIDLGRGNANKIMNRLLQMGREHHGLLLASIDGGSLRNAIPRESVALVAVPSAQKVAFLDELHSLASAIGLELNGVDPELRVEAADAALPVGMIDDTVAQRLFDAVAACPNGVHRMSEAMAGLVETSNNLARVHSDGRAVSVECLLRSASVEGMRELADAVAGIAERAGTVAAFENGYPGWKPNPASPILKCMVKVYRDRFGKTPEIRAVHAGLECGIIGANNPQLDMISFGPTIRHPHSPDEKVECSSVLKFWELLVATLEEVPEPLEHHHHHH", "values": [{"measurement": "protein production", "value": "failed"}]}
{"sequence": "MNIVIAGAGEVGTHLAKMLSQEEQNIVLIDPNPKRLELAAMRSELLPQVGNPLSPSDLLQANVKYADLFISVMPEEADNILACALASRLGAGKTLARINNNEFLKPDMAQYFRDMGVHTMIYPELLAAREIVSTIKNPWARQYVELFDGALVLVGVKVREGAHIVGKYLHELTRTGNKIFHIVAIKRDLETIIPKGGTQVLHGDIVFFATAQNHLDEVRKLAGKDNPPVHKVVIMGGSRIAIRSIEMIPRNIQVAIIEKDKEKSMRISAIAPTNVQVYNGDGRDSDILIEAGLDQTDVFIALTENSETNVLACLGAKRFGVFKTIAKEENIDYISLADRLDIGTLINKKLLAAGSIYRIFLGEDTSTVKCLTLANADVAELVAHRGAPVTKRPVKDLNIPEGITFGGMVRNGVPQMIHGDTVIEPYDHVVVFCLNTPLNILKDFFG", "values": [{"measurement": "protein production", "value": "failed"}]}
{"sequence": "MITNQRIARLNAWGAHGFTATGVVLAFLATIALFNNEPKACLLWLGAALIVDGVDGSLARKVNTTSVLPHFDGSVLDLVIDYLTYVFIPALFIYRYIPVPDYTLLLSVSVILVSSLFCFCNVDMKSKDNYFQGFPAAWNVVALCLYILSPAPWLTFITIIALALLTMTRMKFLHPFRVRRFMPLNIAVTTVWLLASALLIINHPHNGPLVMGLWLAMSAYFLGICIWRTSLEWLGRLKA", "values": [{"measurement": "protein production", "value": "failed"}]}
{"sequence": "MTRYALLVRGINVGGKNKVVMAELRQELTNLGLEKVESYINSGNIFFTSIDSKAQLVEKLETFFAVHYPFIQSFSLLSLEDFEAELENLPAWWSRDLARKDFLFYTEGLDVDQVIATVESLELKDEVLYFGKLGIFWGKFSEESYSKTAYHKYLLKVPFYRHITIRNAKTFDKIGQMLKK", "values": [{"measurement": "protein production", "value": "not failed"}]}
{"sequence": "MKQEFVAAIEIDGTGRIHVTPGESQFPYIYREAMEVSWNESTRSLHSPVPREWSYAQWLQQIFAAASEQGVKLVLGPNTRWVNVPNELRAELTHAAAA", "values": [{"measurement": "protein production", "value": "not failed"}]}
{"sequence": "MTPSKTTLVERCYKYIMSNEKNWSPYTVINRKSWVKNYIEPFFKDTKLIDINPVLIQTFINTTFNNCTFSSSKIRYRFISSVLKEAYRLREINENPCDFVKLPLEHHHHHH", "values": [{"measurement": "protein production", "value": "failed"}]}
{"sequence": "MADKAVADRTIEGLTRAGAAMAAGEIDQAAAHLQAAAQLCPDEPMIWALLGEVLLLLDRPQDGLGALDRALALAPEDPRPRFHRARAFERLDRLAEALADQEALAILCANKAEVWHNLGLLRRAGGDPSGAEAAFGRALALEPSRAESALALAHSLLGRAAWAEGFAHYEARLSLPGWQRPAPLPGRRWRGEDPAGRTLLVSAEQGLGDGVQFLRYLPLIKGAGKVIVECHPPLRRLIAAQPGVDATIAFGEAIPDLGAEGLTIPLASLALPLAGGAPLGERIPYVSKPRLRPQGDRPRIGLAWRSSDRAELRRDPPLAALAALAAIPAVDWVSLQFAPTDYPALPLDLRPMASVDDLDDTAALIADLDLVISVDTAVAHLAGAMGKPLWVLLGPRADWRWTASAQSSPWYPSCVPFFHGAEGWPGVIAAVSERLKAAFNGPPAR", "values": [{"measurement": "protein production", "value": "failed"}]}
{"sequence": "MREGRLGYNSYNKRYGLLSSDLWIDTGFHCGEYLEVLLDDEWVQTRMEMNPAREWYLVGTPYCGDLEYIRARIPE", "values": [{"measurement": "protein production", "value": "failed"}]}
{"sequence": "MNFKLNNTLSNEINTLIIGIPEHLNQLERISFNHIDITESLERLKHQHIIGSKVGKIYTTAFDVQDQTYRLITVGLGNLKTRSYQDMLKIWGHLFQYIKSEHIEDTYLLMDSFISKYDQLSDVLMACGIQSERATYEFDHYKSSKKAPFKTNLNLISESLIELDFIHEGISIGQSINLARDFSNMPPNVLTPQTFAEDIVNHFKNTKVKVDVKDYDTLVSEGFGLLQAVGKGSKHKPRLVTITYNGKDKDEAPIALVGKGITYDSGGYSIKTKNGMATMKFDMCGAANVVGIIEAASRLQLPVNIVGVLACAENMINEASMKPDDVFTALSGETVEVMNTDAEGRLVLADAVFYANQYQPSVIMDFATLTGAAIVALGDDKAAAFESNSKVILNDILQISSEVDEMVFELPITATERASIKHSDIADLVNHTNGQGKALFAASFVTHFSGQTPHIHFDIAGPATTNKASYNGPKGPTGFMIPTIVQWLKQQ", "values": [{"measurement": "protein production", "value": "not failed"}]}
{"sequence": "MMLRFSVITYTFGRLTTKKHNKVMKKLIFLFAFCLTVTNIFAQTDPSQLKKEGSDAFNAKNYPVAYAKFSEYLKQTNNQDSAIAYYCGMAADEVKKYAEAVTFFDIAIQKKFNIGNAYARKALALDAMKKTDEYVATLEEGLKVDPDNKTMIKNYGLHYLKAGIAAQKAGKVEEAEECFKKVIPLDHKTYKTNALYSLGVLCYNDGANILKKAAPLANSDADKYAAEKEKADGRFKEAIGYLEEATKVSPEDTKSKTMLSQVQAAMK", "values": [{"measurement": "protein production", "value": "failed"}]}
{"sequence": "MGSPKVEDTLISDAQIEEAKQDGTTTAVYVIARNSGEFADRLDAEGDYQLWSNEEENLKKVVANFDNVIVVLNVGGIIDTKFFHEIEGLDSLLLMSQAGMRGGDAVVKVLNGEVTPSGKLTDTWAVNYEDYSSSETFGKNDVNTTQEDYTDDIYVGYRYFDTFNVTPAYEFGYGLSYTDFNIDVKDVTVDEENVTVDVKVTNVGKQYSGKEVVEVYFSAPDGALEKPYQELATYGKTDTLAPGESQTLTLSYATTEMSAYSEDLAAYVMEDGDYLVRVGNSSRNTSVEAVINLDSNKVTEQLSNQMVQDEEIDTLSNEGATPYTYEGEAEEIAKAERFELDANAIETVNNASEYDDESVISYVYEGSDYTVVDQEANPRYTKAPSGNNTTPSQLIEPYEETIQYVEKTKENPTLLDVYQGTVTMEELLASLSVEEMSNIVEGLGWGGGSEPIIGAQANSVKGAAGETTSKYYETRAIPNTVLADGPAGIRITQSYEEDGTTYYQYCTAFPIGTLIAQSWDKDVAKQFGEAIGEEMLEMGVTMWLAPGMNIHRNPLCGRNFEYYSEDPLVAGVTAASTTLGVQSHEGIGVTLKHYAANNQEDNRNAVNNTITERALREIYLKGFEIAVKTANPMALMTCYNLNNAMPGADDYDLCTDIPRGEWGFNGLIMTDWGGGQSTPVNSMHAGNDLIMPGGSSKSIAEATGVTLPLGDLQKATRNVLNVIMDSTQFKKIGVENGVEVEIGKFTESAGLGLFLDVTKSEVTSVNKTALQIAVDVASNIADEELENVVPAVANELKAALEEAKAILEDATAEQETVDASFDRLATAIQMLDFIKGDKAALRSFITKVENTVEEEYTPATWTAFAAALGTGNTVLANENAMQEEVDNAYTNLVKAYLNLRLVPNKDKLEDLINQTKALVAANYTADTWKNVSDALVLAENVMSNENATSEEVANAETVLTKAVEGLVVNNTPVTPSTPAVDNTVDSTVKTPVNSGDTTASVKTGDESLTGLFGGITLLSLAGAVLLKRKEN", "values": [{"measurement": "protein production", "value": "failed"}]}
{"sequence": "MGHHHHHHSHMGTKRPAMLDNEADGNKTMIELSDNENPWTIFLETVDPELAASGATLPKFDKDHDVMLFLKMYDPKTR", "values": [{"measurement": "protein production", "value": "failed"}]}
{"sequence": "MKIGIMSDTHDHLPNIRKAIEIFNDENVETVIHCGDFVSLFVIKEFENLNANIIATYGNNDGERCKLKEWLKDINEENIIDDFISVEIDDLKFFITHGHHQSVLEMAIKSGLYDVVIYGHTHERVFEEVDDVLVINPGECCGYLTGIPTIGILDTEKKEYREIVLE", "values": [{"measurement": "protein production", "value": "not failed"}]}
{"sequence": "MATSAKTLQQRMGIIALTWPIFIETLLQSLLGISDIFMLSHYSDNAVAAVGLTTQLMFFMMVMSMMVSTGASILISQNNGAGRTQEATDIGVASVALSLGLAVVMGAAMFFCAHGIIGLFELEPKVAGYGYDYLLICGSLSIGLVMNIAFAAILRSYGFTRSAMLVTLSTGLMNVLGNYIALYSPFGLPVYGVTGVAISTVTSQLMGALIMLAVIRSKHIPLPMQRLNSLPRSTYWSVMRIGLLNAGEMLSYNVAQMTIIYFISQMGTLSLTAYTYGLNISRFIYCFSVALGQAAQIQTGYYVGKQWFDEITVRVQKYCLVGFIVSLAIVLIFFWQRFTIVGWLSENPEVIQLTALLLLGSIALETGRVFNLVIISALKGAGDVAFTVRVGLFSMWGIGVLLAWFFGLYLGYGVLAAWLAVAADEWVRGLIMVQRWRSGRWQRFTRIPPATSA", "values": [{"measurement": "protein production", "value": "failed"}]}
{"sequence": "MNHPYRWVIVAAGGVLGCVAAGAMFSLPVLIRPMSQDTGWSVTGISTAMTIGFLAMAAASMVWGNLSDRFGPRPVVLTGSVVLAASLALGSRATSLIEFQLLFGALVGAATAAVFAPMMACVTGWFDTGRGLAVSLVSAGMGMAPLTMAPLAAWLVTIHDWRGAMLIISAITAALMIPAALLVRRPPALEPGGAEGAWADAQDDMTLRQAVRSPQFVTLLLANFFCCATHSGPIFHTVSYAVTCGIPMIAATSIYSVEGLSGMFGRLGFGLAGDRFGAQRVLVIGLLAQAFGVLAYAFVGGLGGFYAVAVAVGFIYAGTMPLYAVIIRENFPLRMMGTIVGGTAMAGSLGMSTGPVLGGLIYDAYDSYAPMYVASCGMGLAAMLILATFRPFPQRRGELAVA", "values": [{"measurement": "protein production", "value": "failed"}]}
{"sequence": "GDGVWDWDISNGSIFFSSRCRQLLGLTAPEAIAGFQLWQTGIHPDERPTVQAELAGYLRQPEGSFVTEHRFRKGEEWIWLLGRGMVVSLDIQGRPLRMIGTYSDITERKEAEAELQLLNSHLEERVAARTAELKKAMQQISIAEKQAALARMVAGMAHELNTPIGNILLCSSQIQADVAAIAKADTDRLLSRKGLQSFLQKAAESCELLQRNSELAGDLIGRFKQIAVDQLDQP", "values": [{"measurement": "protein production", "value": "failed"}]}
{"sequence": "MFARTAIAPPFAAMAAGRIPNTHDSDMAEARPDSLTRSRAAKPAGEGAAFSPLYRQIKELLVQSLDRGEWKPGELIPSEIDLAARFQVSQGTVRKAVDELAAEHLLLRRQGKGTFVATHHEARVRYRFLRLAPDEEGEGGRAESRILECRRLRAPAEIARALELRAGETVVTIRRQLSMNHMPTVIDDLWLPGTHFRGLTLELLTASKAPLYGLFESEFGVSMVRADEKLRAVAASPEIAPLLGVEPGRPLLQVDRISYTYGDRPMEVRRGLYLTDHYHYRNSLN", "values": [{"measurement": "protein production", "value": "failed"}]}
